Results on four molecules are retold here after paper PMC3531455, “PTH1 Receptor Is Involved in Mediating Cellular Response to Long-Chain Polyunsaturated Fatty Acids” (PLoS ONE, 2012).

As a reminder, the Ki is a measure of affinity in units of concentration, obtained from inhibition or displacement. A higher Ki goes with lower affinity. As a reminder, the IC50 is the midpoint of a concentration-inhibition curve. High values mean lower potency, low ones higher potency.

Assay [1] concerns the target T1, PTH1 receptor (PTH1R) (Homo sapiens, UniProt Q03431).
T1 construct: PTH1R in membrane fractions of transfected HEK293 cells
T1 sequence (Q03431 27-593): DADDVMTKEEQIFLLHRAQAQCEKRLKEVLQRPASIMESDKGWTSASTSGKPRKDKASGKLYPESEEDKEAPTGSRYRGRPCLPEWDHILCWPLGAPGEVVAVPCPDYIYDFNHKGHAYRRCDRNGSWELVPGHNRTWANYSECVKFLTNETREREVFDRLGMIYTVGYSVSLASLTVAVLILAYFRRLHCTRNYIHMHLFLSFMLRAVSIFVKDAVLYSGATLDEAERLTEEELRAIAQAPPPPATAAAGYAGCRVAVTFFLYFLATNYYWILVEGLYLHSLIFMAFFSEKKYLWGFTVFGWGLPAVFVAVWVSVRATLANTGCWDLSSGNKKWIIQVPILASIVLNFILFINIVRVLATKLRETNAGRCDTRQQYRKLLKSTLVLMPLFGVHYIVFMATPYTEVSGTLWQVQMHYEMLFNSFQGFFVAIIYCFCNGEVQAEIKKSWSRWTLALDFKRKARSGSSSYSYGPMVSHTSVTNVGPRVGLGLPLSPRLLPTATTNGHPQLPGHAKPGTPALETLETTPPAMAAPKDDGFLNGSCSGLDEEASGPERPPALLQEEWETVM
The experiment in a line: competitive fluorescence anisotropy displacement of PTH([…])TMR. Format: binding.

Assay [2] addresses T1, PTH1 receptor (PTH1R). The experiment in a line: competitive fluorescence anisotropy displacement of PTH([…])TMR; supported by PTH-CC FRET conformational sensor. Format: binding. In general terms: Polarisation of emitted light reports the rotation of a fluorescent probe.
In assay [3] the target is Parathyroid hormone type 1 receptor (PTH1R) (human) (UniProt Q03431).
Assay [4] shares this target. The experiment in a line: fluorescence polarisation; fluorescence anisotropy, competitive displacement of 2 nM PTH(1–34)^TMR from PTH1R membrane fractions of transfected HEK293 cells; DPBS, 4 hours, room temperature; 96-well plates, 150 µL; IC50 converted to Ki by the Cheng-Prusoff equation.

Consider `CC/C=C\C/C=C\C/C=C\C/C=C\C/C=C\C/C=C\CCC(=O)O` [DHA, docosahexaenoic acid], for which the inhibition constant Ki on PTH1 receptor (PTH1R) [1] came out at 0.54 ± 0.16 nM. Take `CC/C=C\C/C=C\C/C=C\C/C=C\C/C=C\CCCC(=O)O` [EPA, eicosapentaenoic acid]: at PTH1 receptor (PTH1R) [2], the affinity corresponds to a Ki of 0.69 ± 0.25 nM. In turn, Human PTH(1–34) (peptide) returned an ERK1/2 phosphorylation (Emax = pERKmax/ERK, western blot) in HEK293 cells transfected with PTH1R, PTH(1–34) dose response, 5 minutes; no significant increase in untransfected HEK293 cells in assay [3] of 3.5 pERK/ERK. In assay [4], this molecule showed an IC50 of 3.43 nM and a Ki of 2.4 nM. Molecule “Human [Lys-13(Nε-5-carboxy-TMR)]PTH(1–34)NH2 (peptide)” displayed a Ki in assay [4] of 4.66 nM.
